Experimental data from US20100226974A1 (MITSUBISHI PHARMA, published 2010).

Target: T1, human non-muscular myosin heavy chain type A (human, UniProt P35579 2-1960)
T1 construct: also called nmMHCA; human non-muscular myosin A chain
Experiment: flow cytometry, FITC-labeled antibody at 20 ug/ml on intact MKN45 cells, mean channel number of FL1
Method: Cultured cells of MKN45 or cells of a solid tumor (hereinafter referred to as “tumor cells”) formed by subcutaneous transplantation of MKN45 were allowed to react with the GAH antibody described in EP-A-520499 and EP-A-1174126, which had been labeled with fluorescein isothiocyanate (FITC: Sigma), in a concentration of 20 μg/ml at 4° C. for 1 hour, and then washed once with phosphate buffered saline (PBS). Analysis was carried out in PBS containing propidium iodide (PI: Sigma) using a flow cytometer (FACScan: Becton Dickinson). PI-positive cells, namely dead cells, were excluded from the subject of analysis by gating operation. By calculating the mean channel number of FL1 as an index of FITC fluorescence intensity, comparison of the cultured cells and tumor cells of MKN45 was carried out.

T1 sequence (P35579 2-1960 limits assumed): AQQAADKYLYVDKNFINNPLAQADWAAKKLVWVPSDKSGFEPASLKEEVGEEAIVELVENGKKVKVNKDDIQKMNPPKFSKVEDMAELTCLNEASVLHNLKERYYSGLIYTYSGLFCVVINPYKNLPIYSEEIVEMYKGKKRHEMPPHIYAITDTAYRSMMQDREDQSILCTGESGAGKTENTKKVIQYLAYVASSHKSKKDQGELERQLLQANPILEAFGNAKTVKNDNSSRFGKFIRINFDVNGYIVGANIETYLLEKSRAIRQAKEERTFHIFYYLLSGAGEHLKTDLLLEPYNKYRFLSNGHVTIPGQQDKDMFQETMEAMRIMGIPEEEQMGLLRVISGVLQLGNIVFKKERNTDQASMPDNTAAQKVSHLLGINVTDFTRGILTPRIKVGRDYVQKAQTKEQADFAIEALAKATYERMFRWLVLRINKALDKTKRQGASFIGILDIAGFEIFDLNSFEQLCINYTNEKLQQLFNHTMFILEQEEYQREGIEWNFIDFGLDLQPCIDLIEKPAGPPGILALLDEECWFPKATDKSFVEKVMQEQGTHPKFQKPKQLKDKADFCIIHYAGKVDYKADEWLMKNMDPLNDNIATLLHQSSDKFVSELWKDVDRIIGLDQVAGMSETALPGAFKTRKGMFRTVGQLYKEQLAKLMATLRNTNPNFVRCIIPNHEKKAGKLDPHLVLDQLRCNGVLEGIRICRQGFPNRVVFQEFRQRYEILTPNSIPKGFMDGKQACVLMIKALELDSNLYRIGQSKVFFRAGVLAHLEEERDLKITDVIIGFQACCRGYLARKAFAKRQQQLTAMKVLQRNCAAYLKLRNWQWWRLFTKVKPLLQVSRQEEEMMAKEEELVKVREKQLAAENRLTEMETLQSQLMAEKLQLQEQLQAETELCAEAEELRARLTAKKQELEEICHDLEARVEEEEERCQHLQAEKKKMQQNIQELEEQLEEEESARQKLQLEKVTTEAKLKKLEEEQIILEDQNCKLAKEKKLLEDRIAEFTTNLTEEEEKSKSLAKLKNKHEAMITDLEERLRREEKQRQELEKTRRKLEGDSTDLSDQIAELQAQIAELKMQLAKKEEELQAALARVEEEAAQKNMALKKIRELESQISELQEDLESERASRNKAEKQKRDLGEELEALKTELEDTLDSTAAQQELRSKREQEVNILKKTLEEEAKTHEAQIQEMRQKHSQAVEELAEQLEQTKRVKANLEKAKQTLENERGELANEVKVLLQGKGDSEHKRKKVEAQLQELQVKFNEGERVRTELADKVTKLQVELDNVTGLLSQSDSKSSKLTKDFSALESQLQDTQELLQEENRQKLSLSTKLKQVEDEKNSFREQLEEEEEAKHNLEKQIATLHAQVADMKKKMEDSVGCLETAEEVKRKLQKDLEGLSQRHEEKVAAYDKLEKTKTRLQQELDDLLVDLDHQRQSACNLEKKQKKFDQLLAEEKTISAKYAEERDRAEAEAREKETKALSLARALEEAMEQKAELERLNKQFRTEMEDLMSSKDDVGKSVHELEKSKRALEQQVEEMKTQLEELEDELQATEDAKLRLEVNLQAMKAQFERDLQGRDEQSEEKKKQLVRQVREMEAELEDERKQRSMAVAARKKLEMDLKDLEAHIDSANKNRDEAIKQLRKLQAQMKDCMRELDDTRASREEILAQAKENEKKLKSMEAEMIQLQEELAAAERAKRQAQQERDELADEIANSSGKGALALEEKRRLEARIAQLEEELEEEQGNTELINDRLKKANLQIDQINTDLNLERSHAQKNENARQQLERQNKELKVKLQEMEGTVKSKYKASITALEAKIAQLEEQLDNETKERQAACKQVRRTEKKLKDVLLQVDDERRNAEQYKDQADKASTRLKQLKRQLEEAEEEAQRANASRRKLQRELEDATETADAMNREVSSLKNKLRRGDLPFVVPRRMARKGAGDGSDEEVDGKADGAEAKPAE

B1: GAH antibody (human monoclonal antibody disclosed in EP-A-520499) (antibody, V domains shown)
VH: QVQLQESGPGLVKPSQTLSLTCTVSGGSISSCGFYWNWIRQHPGKGLEWIGYIYYSGSTYYNPSLKSRVTISLDTSKSQFSLKLSSLTAADTAVYYCARSTRLRGADYWGQGTMVTVSS
VL: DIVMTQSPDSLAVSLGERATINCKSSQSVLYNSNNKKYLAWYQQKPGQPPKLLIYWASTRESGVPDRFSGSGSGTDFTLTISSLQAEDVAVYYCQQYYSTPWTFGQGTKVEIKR
In the case of B1, the “fold reactivity, tumor cells against cultured cells of MKN45” value is reported as ~18 times.
